Experiments:
[1] = target: T1, murine RAGE, full length, on cells (murine, UniProt Q62151 23-402); assay: cell-based ELISA, transfected 293 cells
T1 construct: on transfected or infected 293 cells; also called 293-murine RAGE; cell-surface mRAGE
T1 chain: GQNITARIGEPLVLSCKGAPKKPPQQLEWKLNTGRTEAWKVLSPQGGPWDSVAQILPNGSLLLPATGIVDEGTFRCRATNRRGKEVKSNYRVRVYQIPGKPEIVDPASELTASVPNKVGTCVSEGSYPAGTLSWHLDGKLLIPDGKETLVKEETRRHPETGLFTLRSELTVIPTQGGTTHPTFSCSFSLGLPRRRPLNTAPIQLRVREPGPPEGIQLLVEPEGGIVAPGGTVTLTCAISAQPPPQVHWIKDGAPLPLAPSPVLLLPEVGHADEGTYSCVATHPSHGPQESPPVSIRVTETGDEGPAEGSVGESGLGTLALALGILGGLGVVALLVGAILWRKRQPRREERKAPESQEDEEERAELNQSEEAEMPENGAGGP
Procedure: (§1) Human embryonic kidney 293 cells (American Tissue Type Culture, Manassas, Va.) cells were plated at 5×10⁶ cells per 10 cm² tissue culture plate and cultured overnight at 37° C. The next day cells were transfected with RAGE expression plasmids (pAdori1-3 vector encoding mouse, human, baboon, cynomologus monkey or rabbit RAGE) using LF2000 reagent (Invitrogen, Carlsbad Calif.) at a 4:1 ratio of reagent to plasmid DNA using the manufacturers protocol. Cells were harvested 48 hrs post-transfection using trypsin, washed once with phosphate buffered saline (PBS), then suspended in growth media without serum at a concentration of 2×10⁶ cells/ml.
(§2) Primary antibodies at 1 μg/ml were serially diluted at 1:2 or 1:3 in PBS containing 1% bovine serum albumin (BSA) in a 96-well plate. RAGE-transfected 293 cells or control parental 293 cells (50 μl) at 2×10⁶ cells/ml in serum-free growth medium were added to U-bottom 96 well plate for a final concentration of 1×10⁵ cells/well. The cells were centrifuged at 1600 rpm for 2 minutes. The supernatants were gently discarded by hand with a one-time swing and the plate was patted gently to loose the cell pellet. The diluted primary anti-RAGE antibodies or isotype-matching control antibodies (100 μl) in cold PBS containing 10% fetal calf serum (FCS) were added to the cells and incubated on ice for 1 hour. The cells were stained with 100 μl of diluted secondary anti-IgG antibody HRP conjugates (Pierce Biotechnology, Rockford, Ill.) on ice for 1 hour. Following each step of primary antibody and secondary antibody incubations, the cells were washed 3 times with ice-cold PBS. 100 μl of substrate TMB1 component (BIO FX, TMBW-0100-01) was added to the plate and incubated for 5-30 minutes at room temperature. The color development was stopped by adding 100 μl of 0.18M H₂SO₄. The cells were centrifuged and the supernatants are transferred to a fresh plate and read at 450 nm (Soft MAX pro 4.0, Molecular Devices Corporation, Sunnyvale, Calif.).

baboon RAGE, on cells = target: T2, baboon RAGE, on cells (baboon, UniProt Q15109 23-404 (human entry)); assay: cell-based ELISA, transfected 293 cells
T2 construct: on transfected 293 cells or endogenous in lung sections; also called 293-baboon RAGE; RAGE in baboon lung
T2 chain: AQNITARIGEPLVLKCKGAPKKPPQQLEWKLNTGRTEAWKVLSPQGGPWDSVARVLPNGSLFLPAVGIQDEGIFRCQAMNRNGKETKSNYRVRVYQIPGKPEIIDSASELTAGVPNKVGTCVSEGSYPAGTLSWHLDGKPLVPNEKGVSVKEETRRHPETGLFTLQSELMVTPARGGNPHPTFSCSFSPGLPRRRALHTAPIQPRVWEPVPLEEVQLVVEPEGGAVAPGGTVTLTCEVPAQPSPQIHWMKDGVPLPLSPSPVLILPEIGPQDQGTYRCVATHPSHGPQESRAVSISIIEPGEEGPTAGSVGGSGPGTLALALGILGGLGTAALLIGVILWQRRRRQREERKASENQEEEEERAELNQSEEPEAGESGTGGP
Procedure: as §1, §2

[2] = target: T3, human RAGE-Fc fusion protein (human, UniProt Q15109 23-344); assay: antibody competition ELISA on hRAGE-Fc; competitor: biotinylated XT-M4
T3 construct: amino acids 1-344 of human RAGE appended to the Fc domain of human IgG; also called hRAGE-Fc; huRAGE-Fc
Procedure: ELISA plates were coated overnight with 1 ug/ml human RAGE-Fc. […] Briefly, plates were coated overnight with 1 ug/ml human RAGE-Fc.

[3] = target: T3, human RAGE-Fc fusion protein; assay: ligand competition ELISA, panel 'Blocks hRAGE-Fc interaction with HMGB1'; blocked ligand HMGB1
[4] = target: T4, human RAGE-strep tag fusion protein (human, UniProt Q15109 23-344); assay: BIACORE capture assay: hRAGE-SA over antibody captured on anti-human Fc; 1:1 Langmuir global fit; FC3
T4 construct: monomeric soluble human RAGE; also called hRAGE-SA; soluble human streptavidin-tagged RAGE
Procedure: The assays were performed by coating anti-human Fc antibodies onto a CM5 BIA chip with 5000 RU (pH 5.0, 7 min.) in flow cells 1-4. Each antibody was captured by flowing at 2.0 μg/ml over the anti-Fc antibodies in flow cells 2-4 (flow cell 1 was used as a reference).

B1: chimeric XT-M4 (antibody, V domains shown)
VH: EVQLVESGGGLVQPGRSLKLSCVVSGFTFNNYWMTWIRQTPGKGLEWVASINNSGDNTYYPDSVKDRFTISRDNAKSTLYLQMNSLRSEDTATYYCTRGGDITTGFDYWGQGVMVTVSS
VL: DIQMTQSPSSMSVSLGDTITITCRASQDVGIYVNWFQQKPGKSPRRMIYRATNLADGVPSRFSGSRSGSIYSLTISSLESEDVADYHCLEFDEHPLTFGSGTKVEIK
modifications: N-linked oligosaccharide at Asn52 (CDR2) on part of the heavy chains
notes: rat XT-M4 variable regions fused to human kappa light chain and human IgG1 heavy chain constant regions; L234A and G237A in the human IgG1 Fc region; also called chimeric antibody XT-M4; XT-M4-A-1
For B1, the EC50 [1] was roughly 1.5 nM, the EC50 (baboon RAGE, on cells) was roughly 1.25 nM and the “IC50 (read off the curve)” value [2] was roughly 0.4 µg/mL. For the same binder, the “IC50 (read off the curve)” value [3] was roughly 0.1 µg/mL, the Kd [4] was 7.33 nM and the koff [4] was 0.0271 s⁻¹. It also gave a kon [4] of 3.7e+06 M⁻¹ s⁻¹.
